These are literature values, as cited in paper PMC10449480.

This data set has as its target tryptophanyl-tRNA synthetase (Geobacillus stearothermophilus) (UniProt P00953).

What is called Kd is a measure of binding affinity in units of concentration. On to “tryptophanyl-tRNA synthetase (from UniProt P00953)”, for which the Kd was 5 nM.
